Read-outs that look alike come from different tables or passages of the source.
Columns and labels:
[1] = glycan lost
[2] = cell-surface biotinylation, anti-hACE2 western blot; details: glycan lost; control: full-length hACE2 wt
[3] = focus reduction neutralization test, Vero E6 cells; details: glycan lost; control: shACE2-wt

Substance: angiotensin-converting enzyme 2 (hACE2): N53A
- other: virus entry into hACE2-expressing cells [1]: decreases
- other: virus entry into hACE2-expressing cells, fold_change [1]: decreases
- expression_or_secretion [2]: no change

Substance: angiotensin-converting enzyme 2 (hACE2): N53A/N90A/N322A
- other: virus entry into hACE2-expressing cells [1]: increases
- other: virus entry into hACE2-expressing cells, fold_change [1]: increases
- other: decoy neutralising activity of shACE2, other: FRNT50 [3]: increases
- expression_or_secretion [2]: no change

Substance: angiotensin-converting enzyme 2 (hACE2): N90A
- other: virus entry into hACE2-expressing cells [1]: increases
- other: virus entry into hACE2-expressing cells, fold_change [1]: increases
- other: decoy neutralising activity of shACE2, other: FRNT50 [3]: increases
- expression_or_secretion [2]: no change

Substance: angiotensin-converting enzyme 2 (hACE2): N90A/N322A
- other: decoy neutralising activity of shACE2, other: FRNT50 [1]: increases
- other: virus entry into hACE2-expressing cells [1]: increases
- other: virus entry into hACE2-expressing cells, fold_change [1]: increases
- other: decoy neutralising activity of shACE2, other: FRNT50 [3]: increases
- expression_or_secretion [2]: no change

Substance: angiotensin-converting enzyme 2 (hACE2): N90S
- other: virus entry into hACE2-expressing cells [1]: increases

Substance: angiotensin-converting enzyme 2 (hACE2): N90S/N322S
- other: virus entry into hACE2-expressing cells [1]: increases
- other: virus entry into hACE2-expressing cells, fold_change [1]: increases

Substance: angiotensin-converting enzyme 2 (hACE2): N322A
- other: virus entry into hACE2-expressing cells [1]: increases
- other: virus entry into hACE2-expressing cells, fold_change [1]: increases
- expression_or_secretion [2]: no change

Substance: angiotensin-converting enzyme 2 (hACE2): N322S
- other: virus entry into hACE2-expressing cells [1]: increases
